Each block holds one binder with its values, some of them ahead of it.
Target: T1, human IL-1α, biotinylated (human, UniProt P01583 113-271, biotin (EZ-Link NHS-Peg4-Biotin, 10-fold molar excess; sites not stated))
T1 construct: interleukin-1 alpha (IL1A), human; crystallised); If it was the ProSpec protein, it may carry a His tag (surmised from the Talon beads); also called IL-1a; IL1F1; source: purified IL-1α protein, biotinylated with EZ-Link NHS-Peg4-Biotin
T1 sequence (looked up): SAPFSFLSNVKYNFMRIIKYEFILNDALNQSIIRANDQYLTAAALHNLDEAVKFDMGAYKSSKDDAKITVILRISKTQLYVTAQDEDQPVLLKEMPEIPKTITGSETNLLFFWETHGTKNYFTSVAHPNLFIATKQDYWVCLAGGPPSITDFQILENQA
Assay: radioligand binding; competition: 32P-labelled aptamer SL1067 (~30 pM) and unlabelled receptor (10^-6 to 10^-11 M) with biotinylated IL-1α (2 nM) in SB18T buffer (40 mM HEPES pH 7.5, 102 mM NaCl, 5 mM KCl, 5 mM MgCl2, 0.01% Tween-20), 37 °C, 60 min; complexes captured on MyOne streptavidin resin and Durapore filter plates; one-site competition model
Conditions: both partners purified

- Ki: 290 nM
B1: recombinant IL-1RII, extracellular domain (receptor, UniProt P27930 14-343, looked up)
chain: FTLQPAAHTGAARSCRFRGRHYKREFRLEGEPVALRCPQVPYWLWASVSPRINLTWHKNDSARTVPGEEETRMWAQDGALWLLPALQEDSGTYVCTTRNASYCDKMSIELRVFENTDAFLPFISYPQILTLSTSGVLVCPDLSEFTRDKTDVKIQWYKDSLLLDKDNEKFLSVRGTTHLLVHDVALEDAGYYRCVLTFAHEGQQYNITRSIELRIKKKKEETIPVIISPLKTISASLGSRLTIPCKVFLGTGTPLTTMLWWTANDTHIESAYPGGRVTEGPRQEYSENNENYIEVPLIFDPVTREDLHMDFKCVVHNTLSFQTLRTTVKE
notes: interleukin-1 receptor type 2, extracellular domain; also called IL-1RI1 (as printed in the methods); source: bought: R&D Systems

- Ki: 21 nM
B2: recombinant IL-1RI, extracellular domain (receptor, UniProt P14778 18-336, looked up)
chain: LEADKCKEREEKIILVSSANEIDVRPCPLNPNEHKGTITWYKDDSKTPVSTEQASRIHQHKEKLWFVPAKVEDSGHYYCVVRNSSYCLRIKISAKFVENEPNLCYNAQAIFKQKLPVAGDGGLVCPYMEFFKNENNELPKLQWYKDCKPLLLDNIHFSGVKDRLIVMNVAEKHRGNYTCHASYTYLGKQYPITRVIEFITLEENKPTRPVIVSPANETMEVDLGSQIQLICNVTGQLSDIAYWKWNGSVIDEDDPVLGEDYYSVENPANKRRSTLITVLNISEIESRFYKHPFTCFAKNTHGIDAAYIQLIYPVTNFQK
notes: interleukin-1 receptor type 1, extracellular domain; also called IL-1R1; IL-1 receptor; source: bought: R&D Systems
